Data from patent US8821862B2, “Soluble β-N-acetylglucosaminidase based antibiofilm compositions and uses thereof” (Kane Biotech Inc., priority 2002, dated 2014).

Experiments:
S. epidermidis = test: In vitro microplate growth and biofilm formation assay (crystal violet); assay type: cell-based, Staphylococcus epidermidis; conditions: DispersinB at different concentrations, TSB, 37° C., 24 hours
Method: An overnight culture of S. epidermidis in Tryptic Soy Broth (TSB) was used as inoculum. Bacteria were grown in TSB on a 96-well microtiterplate in the absence and presence of each compound (DispersinB™ or TCSN) at different concentrations separately and together (DispersinB™+TCSN). Concentrations of DispersinB™ included 25 ng/ml, 50 ng/ml, and 100 ng/ml. Concentrations of TCSN included 25 μg/ml, 50 μg/ml, and 100 μg/ml. The plate was incubated at 37° C. for 24 hours. The growth and biofilm was measured as explained in Example 1.
The experiment was performed as explained in Example 1.
An in vitro microtiter assay was performed to determine the effect of DispersinB™ wound gel on the growth and biofilm formation of Staphylococcus epidermidis. S. epidermidis biofilm was grown in tryptic soy broth (TSB). S. epidermidis was grown in 96-well microtiter plate in the absence and presence of DispersinB™ wound gel at different concentrations. The plate was incubated at 37° C. for 24 hours.
In vitro microplate assay was performed to determine the synergistic effect of DispersinB™ and triclosan (an antimicrobial agent) on the growth and biofilm formation of S. epidermidis. Overnight culture of S. epidermidis in Tryptic Soy Broth (TSB) was used as inoculum. […]

S. epidermidis biofilm = test: Dispersal of S. epidermidis biofilm aggregates in a tube; assay type: cell-based; conditions: scraped biofilm cell aggregates in tube treated with DispersinB
From the text: The biofilm growth from the surface was scraped from the bottom of the tube and transferred to another tube (FIG. 2). Under these condition cells formed a sticky aggregate that rapidly settle to the bottom of the tube.

[1] = test system: A. actinomycetemcomitans strain HW1018 (PGA mutant) biofilms; test: Biofilm detachment assay (crystal violet); assay type: cell-based; conditions: DispersinB 20 μg/mL; either culture vessel
From the text: (§1) Bacterial strains, media, and growth conditions. A. actinomycetemcomitans strain CU1000 (serotype f) was isolated from a person with localized aggressive periodontitis (Fine et al., Microbiol. 1999, 145: 1335-1347). […] An isogenic PGA mutant strain HW1018 (CU1000 pgaC::IS903φKan) was isolated by randomly mutagenizing CU1000 with transposon IS903φKan and selecting mutants that produced white colonies on Congo red agar, as previously described (Kaplan et al., 2003; Kaplan et al., J. Bacteriol. 2004, 186: 8213-8220). Like other pgaC mutant strains, HW1018 was completely deficient in PGA production, but still formed tenacious biofilms on plastic surfaces (Kaplan et al., 2004). Bacteria were grown in trypticase soy broth supplemented with […] and 8 g/L glucose. Solid medium was supplemented with 15 g/L agar. All cultures were incubated statically at 37° C. in 10% CO2.
(§2) Biofilm Cultures. Biofilms were grown in 17 mm×100 mm culture tubes (untreated polystyrene; Falcon #352051) or 96-well microtiter plates (tissueculture-treated polystyrene, flat bottoms; Falcon #353072). Culture vessels were inoculated with a 1:10 dilution of inoculum in fresh broth (1 mL for tubes or 200 μL for microplates) and incubated for 24 h.
(§3) Crystal Violet Assay. Biofilm biomass was visualized and quantitated by means of a crystal violet binding assay as previously described (Kaplan et al., Antimicrob. Agents Chemother. 2004, 48: 2633-2636). Briefly, biofilms were rinsed with water to remove loosely attached cells, stained for 1 min with Gram's crystal violet (200 μL for microplates and 1 mL for tubes), rinsed, dried, and photographed. For quantitation of biofilms grown in microplates, biofilms were de-stained with 200 μL of 33% acetic acid for 5 min, and the absorbance of the crystal violet solution was measured directly in the plate by means of a BioRad Benchmark microtiter plate-reader set at 590 nm. Crystal violet binds to bacterial biofilms, but not to polystyrene (O'Toole & Kolter, Mol. Microbiol. 1998, 28: 449-461).
(§4) Biofilm Detachment Assay. Biofilms were rinsed with water and treated with 200 μL (for microplates) or 1 mL (for tubes) of DispersinB™ (20 μg/mL in PBS) or SDS (0.001-1% in PBS). After a five- or 30-minute incubation at 37° C., biofilms were rinsed with water and stained with crystal violet as described above. In some assays, biofilms were first treated with DispersinB™ for 5 or 30 min, rinsed, and then treated with SDS. All detachment assays were performed in duplicate wells or tubes. All assays were performed on at least 3 separate occasions, with similar results.

[2] = test system: A. actinomycetemcomitans strain CU1000 (wild-type) biofilms; test: Biofilm detachment assay (crystal violet); assay type: cell-based
From the text: as §1, §2, §3, §4

B1: DispersinB™: 381 amino acid soluble β-N-acetylglucosaminidase encoded by dspB of A. actinomycetemcomitans; mature polypeptide SEQ ID NO:11 (protein)
chain: NCCVKGNSIYPQKTSTKQTGLMLDIARHFYSPEVIKSFIDTISLSGGNFLHLHFSDHENYAIESHLLNQRAENAVQGKDGIYINPYTGKPFLSYRQLDDIKAYAKAKGIELIPELDSPNHMTAIFKLVQKDRGVKYLQGLKSRQVDDEIDITNADSITFMQSLMSEVIDIFGDTSQHFHIGGDEFGYSVESNHEFITYANKLSYFLEKKGLKTRMWNDGLIKNTFEQINPNIEITYWSYDGDTQDKNEAAERRDMRVSLPELLAKGFTVLNYNSYYLYIVPKASPTFSQDAAFAAKDVIKNWDLGVWDGRNTKNRVQNTHEIAGAALSIWGEDAKALKDETIQKNTKSLLEAVIHKTNGDE
modifications: Actinobacillus actinomycetemcomitans
biofilm formation (S. epidermidis): appreciable effect | dispersal of S. epidermidis biofilm (S. epidermidis biofilm): detaches the biofilm | attachment of PGA mutant biofilms [1]: no effect | detachment of wild-type biofilms from microplate wells ([2]; DispersinB 20 μg/mL in PBS, 5 min, 96-well microplate wells): not from microplate wells | detachment of wild-type biofilms from tubes ([2]; DispersinB 20 μg/mL in PBS, 5 min, polystyrene tubes): rapid detachment | single cells in suspension after disaggregation of biofilms ([2]; biofilms grown in tubes, DispersinB, microscopic analyses (data not shown)): > 99%
